How the values were obtained:
[1] = target: T1, recombinant human VEGF165 (human, UniProt P15692 207-395); test: cell-based or functional assay
[2] = target: T2, recombinant human PDGF-BB (human, UniProt P01127 82-190); test: cell-based or functional assay
[3] = target: T2, recombinant human PDGF-BB; test: competition ELISA: blocks hPDGF-BB-biotin binding to coated hPDGF-Rβ-Fc
Procedure: Plates were then washed four times with wash buffer (TBS, 0.05% Tween-20) and blocked with Superblock blocking buffer (Thermo Scientific, cat#37535). During the blocking step, supernatants, antibodies, benchmark compounds or DVD-Ig were diluted in assay diluent (10% Superblock containing 0.05% surfactamps) and an eight point titration of each sample molecule was performed. […] Following incubation, plates were washed four times with wash buffer. Detection reagent Streptavidin-polyHRP-40 (Fitzgerald, cat#65r-s104phrp) was diluted in assay diluent and added to plates (50 μL) for 45 minutes at 25° C. with shaking. Plates were washed four times with wash buffer and developed with the addition of Enhanced K-blue TMB substrate (Neogen, cat#308177). The reaction was stopped with 2N sulfuric acid (VWR, cat# BDH3500-1) and the absorbance was read at 450 nm-570 nm. […] Data was analyzed using Softmax Pro 4.8 software and IC₅₀ values calculated using a sigmoidal dose response (variable slope) fit in GraphPad Prism 5.

[4] = target: T1, recombinant human VEGF165; test: competition ELISA: blocks biotinylated hVEGF165 binding to coated hVEGF-R2-Fc
Procedure: To identify molecules that could block the binding of hVEGF₁₆₅ to the hVEGF-R2 (KDR/Flk-1) receptor, a competition ELISA was performed. […] Plates were then washed four times with wash buffer (TBS, 0.05% Tween-20) and blocked with Superblock blocking buffer (Thermo Scientific, cat#37535). […] The pre-incubated sample/hVEGF₁₆₅ complex was added to the coated plate at 50 μL in duplicate and incubated for 30 minutes at 25° C. with shaking. Following incubation, plates were washed four times with wash buffer. Streptavidin-polyHRP-40 (Fitzgerald cal#65r-s104phrp) was diluted in assay diluent (10% Superblock containing 0.05% surfactamps) and added to plates (50 μL) for 45 minutes at 25° C. with shaking. Plates were washed four times with wash buffer and developed with the addition of Enhanced K-blue TMB substrate (Neogen cat#308177). The reaction was stopped with 2N sulfuric acid (VWR, cat# BDH3500-1) and the absorbance was read at 450 nm-570 nm. A decrease in observed optical density indicates the test molecule is blocking the hVEGF₁₆₅ binding to the hVEGF-R2-Fc. Data was analyzed using Softmax Pro 4.8 software and IC₅₀ values calculated using a sigmoidal dose response (variable slope) fit in GraphPad Prism 5.

T1 sequence (P15692 other isoform, or with tags, fused parts or gaps limits assumed): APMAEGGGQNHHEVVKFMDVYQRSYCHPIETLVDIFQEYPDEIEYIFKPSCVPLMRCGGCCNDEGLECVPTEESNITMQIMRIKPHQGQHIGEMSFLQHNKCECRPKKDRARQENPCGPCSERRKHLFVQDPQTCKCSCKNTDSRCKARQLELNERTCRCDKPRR
T2 sequence (P01127 82-190 limits assumed): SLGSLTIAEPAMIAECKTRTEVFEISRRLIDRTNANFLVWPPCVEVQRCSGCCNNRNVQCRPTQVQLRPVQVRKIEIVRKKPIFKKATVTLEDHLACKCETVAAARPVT

B1: hVEGF 4G8.3-GS-hPDGF 9E8.4 [hu IgG1/k] mut(234, 235) H435A (bispecific antibody)
heavy: EVQLVQSGSELKKPGASVKVSCKASGYTFTNYGMYWVRQAPGQGLEWMGWINTETGKPTYADDFKGRFVFSLDTSVSTAYLQISSLKAEDTAVYYCARTNYYYRSYIFYFDYWGQGTMVTVSSGGGGSGGGGSEVTLRESGPALVKPTQTLTLTCTFSGFSLSTYGMGVGWIRQPPGKALEWLANIWWDDDKYYNPSLKNRLTISKDTSKNQVVLTMTNMDPVDTATYYCARIESIGTTYSFDYWGQGTMVTVSSASTKGPSVFPLAPSSKSTSGGTAALGCLVKDYFPEPVTVSWNSGALTSGVHTFPAVLQSSGLYSLSSVVTVPSSSLGTQTYICNVNHKPSNTKVDKKVEPKSCDKTHTCPPCPAPEAAGGPSVFLFPPKPKDTLMISRTPEVTCVVVDVSHEDPEVKFNWYVDGVEVHNAKTKPREEQYNSTYRVVSVLTVLHQDWLNGKEYKCKVSNKALPAPIEKTISKAKGQPREPQVYTLPPSREEMTKNQVSLTCLVKGFYPSDIAVEWESNGQPENNYKTTPPVLDSDGSFFLYSKLTVDKSRWQQGNVFSCSVMHEALHNAYTQKSLSLSPGK
light: DTVLTQSPATLSLSPGERATLSCRASESVSTHMHWYQQKPGQAPRLLIYGASNLESGVPARFSGSGSGTDFTLTISSLEPEDFAVYFCQQSWNDPFTFGQGTKLEIKRGGSGGGGSGEFVLTQSPGTLSLSPGERATLSCERSSGDIGDSYVSWYQQKPGQAPRLVIYADDQRPSGIPDRFSGSGSGTDFTLTISRLEPEDFAVYYCQSYDINIDIVFGGGTKVEIKGTVAAPSVFIFPPSDEQLKSGTASVVCLLNNFYPREAKVQWKVDNALQSGNSQESVTEQDSKDSTYSLSSTLTLSKADYEKHKVYACEVTHQGLSSPVTKSFNRGEC
notes: DVD-Ig, outer anti-VEGF hBDB-4G8.3, inner anti-PDGF hBDI-9E8.4; also called 4G8.3-GS-9E8.4
In the case of B1, the “Potency IC50 (nM) HMVEC-d hVEGF165” value [1] is reported as 0.341 nM, the “Potency IC50 (nM) NIH-3T3 hPDGF-BB” value [2] is reported as 0.63 nM and the IC50 [3] is reported as greater than 5000 pM. It also gave an IC50 [4] of 137 pM.

B2: hVEGF 4G8.3-LS-hPDGF 9E8.4 [hu IgG1/k] mut(234, 235) H435A (bispecific antibody)
heavy: EVQLVQSGSELKKPGASVKVSCKASGYTFTNYGMYWVRQAPGQGLEWMGWINTETGKPTYADDFKGRFVFSLDTSVSTAYLQISSLKAEDTAVYYCARTNYYYRSYIFYFDYWGQGTMVTVSSASTKGPSVFPLAPEVTLRESGPALVKPTQTLTLTCTFSGFSLSTYGMGVGWIRQPPGKALEWLANIWWDDDKYYNPSLKNRLTISKDTSKNQVVLTMTNMDPVDTATYYCARIESIGTTYSFDYWGQGTMVTVSSASTKGPSVFPLAPSSKSTSGGTAALGCLVKDYFPEPVTVSWNSGALTSGVHTFPAVLQSSGLYSLSSVVTVPSSSLGTQTYICNVNHKPSNTKVDKKVEPKSCDKTHTCPPCPAPEAAGGPSVFLFPPKPKDTLMISRTPEVTCVVVDVSHEDPEVKFNWYVDGVEVHNAKTKPREEQYNSTYRVVSVLTVLHQDWLNGKEYKCKVSNKALPAPIEKTISKAKGQPREPQVYTLPPSREEMTKNQVSLTCLVKGFYPSDIAVEWESNGQPENNYKTTPPVLDSDGSFFLYSKLTVDKSRWQQGNVFSCSVMHEALHNAYTQKSLSLSPGK
light: DTVLTQSPATLSLSPGERATLSCRASESVSTHMHWYQQKPGQAPRLLIYGASNLESGVPARFSGSGSGTDFTLTISSLEPEDFAVYFCQQSWNDPFTFGQGTKLEIKRTVAAPEFVLTQSPGTLSLSPGERATLSCERSSGDIGDSYVSWYQQKPGQAPRLVIYADDQRPSGIPDRFSGSGSGTDFTLTISRLEPEDFAVYYCQSYDINIDIVFGGGTKVEIKGTVAAPSVFIFPPSDEQLKSGTASVVCLLNNFYPREAKVQWKVDNALQSGNSQESVTEQDSKDSTYSLSSTLTLSKADYEKHKVYACEVTHQGLSSPVTKSFNRGEC
notes: DVD-Ig, outer hBDB-4G8.3, inner hBDI-9E8.4, HG-long/LK-short; also called PR-1575573; 4G8.3-LS-9E8.4
In the case of B2, the IC50 [3] is reported as greater than 5000 pM and the IC50 [4] is reported as 131 pM.

Reference: patent publication US20170015742A1 (published 2017)
